Experimental data reported in the supplement of paper PMC11908140.

B1: library; numbered along this chain (parent)
chain: MRKPRAAVGSGHRKQAASQEGRQKHAKNNSQAKPSACDGLARQPEEVVLQASVSSYHLFRDVAEVTAFRGSLLSWYDQEKRDLPWRRRAEDEMDLDRRAYAVWVSEVMLQQTQVATVINYYTGWMQKWPTLQDLASASLEEVNQLWAGLGYYSRGRRLQEGARKVVEELGGHMPRTAETLQQLLPGVGRYTAGAIASIAFGQATGVVDGNVARVLCRVRAIGADPSSTLVSQQLWGLAQQLVDPARPGDFNQAAMELGATVCTPQRPLCSQCPVESLCRARQRVEQEQLLASGSLSGSPDVEECAPNTGQCHLCLPPSEPWDQTLGVVNFPRKASRKPPREESSATCVLEQPGALGAQILLVQRPNSGLLAGLWEFPSVTWEPSEQLQRKALLQELQRWAGPLPATHLRHLGEVVHTFSHIKLTYQVYGLALEGQTPVTTVPPGARWLTQEEFHTAAVSTAMKKVFRVYQGQQPGTCMGSKRSQVSSPCSRKKPRMGQQVLDNFFRSHISTDAHSLNSAAQ

Variants of: B1
Test: 8OG:A repair function score (normalized; synonymous = 0, nonsense = -1) (normalized log-likelihood score); higher = more repair activity (WT-like)
Details: with 8OG:A DNA repair reporter (GFP) in HEK-293 MUTYH KO cells
Experimental: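 Saturation mutagenesis (NNN codon scan) of the MUTYH cDNA (521-aa nuclear isoform NM_001048174.1 / NP_001041639), stably expressed under doxycycline induction in HEK-293 MUTYH knockout cells. Cells were co-transfected with an 8OG:A-bearing GFP repair reporter plus mCherry and sorted 72 h later into GFP+ and GFP− bins, three replicates per tile. The Rosace log2 enrichment (GFP+ vs GFP−) was converted per tile to a normalized function score with synonymous variants centered at 0 and nonsense variants (codons 1-471) at -1; low-abundance variants were removed.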

8OG:A repair function score, by site and new letter:
R60: Y -0.014; W -0.564; V 0.00595
F68: S -1.34; N -1.12; I -0.126; M -0.0967; P -1.6; K -0.962; C -0.545; T -0.393; E -1.5; W -0.369; R -1.29; L -0.141; H -1.1; Q -0.906; A -0.234; Y -0.0444; V -0.0136; G -1.41; D -1.87
L72: S -0.775; P -1.34; M -0.732; W -0.994; R -1.65; H -1.08; F -1.08; C -0.229; A -0.207; N -2.41; G -1.17; Q -1.44; Y -1.03; E -1.21; V -0.446; T -0.206; D -1.11; I -0.0959; K -1.1
S71: C -0.00534; N -0.00566; D -0.0972; R -0.0148; P -0.0398; K -0.0254; Y -0.0584; Q -0.0211; L -0.00671; I -0.125; F 0.00684; M 0.00635; W 0.000735; T -0.0759; V 0.00531; A -0.0236; H -0.0346; E -0.0479; G -0.000985
Q78: G -0.0331; D -0.00768; H -0.0658; S 0.00682; E 0.00685; I -0.00974; A -0.00817; P -0.138; M -0.517; T -0.00936; L -0.0196; F -0.0455; N -0.105; R 0.00285; C -0.996; K -0.0833
T66: S -0.0428; P -0.115; L -0.00253; G -0.0192; I -0.0285; A -0.0148; Q 0.00332; C 0.00591; D 0.00573; N -0.0376; K -0.0706; Y -0.00942; H -0.091; F -0.00932; E 0.00467; V 0.00408; R -0.0902; M -0.0066
W75: L -2.04; C -1.25; Y -0.448; S -1.58; Q -1.46; T -3.63; G -1.2; V -1.78; A -1.3; P -3.8; K -1.2; N -2.91; E -1.57; F -0.21; I -2.41; R -1.13; H -0.412; D -3.7; M -1.05
A63: W -0.00488; K -0.00172; Q -0.105; D 0.00576; Y -0.056; R 0.00494; H -0.0822; L -0.00968; P -0.0204; S 0.00279; C -0.0141; N -0.101; V -0.0122; F -0.142; E -0.00911; G -0.0575; M -0.0357; T 0.00284; I -0.0351
R69: Q -0.519; G -0.281; Y -0.421; S -0.0909; E -3.19; N -1.56; D -1.4; L -1.24; F -1.53; I -3.35; C -0.33; M -3.11; P -1.42; V -0.212; W -3.43; A -1.46; H -1.89; T -0.172; K -0.298
V62: T 0.00595; R -0.00306; L 0.00583; S 0.00493; Y 0.00694; Q -0.0156; G 0.0052; E -0.456; P 0.00101; I -0.00659; N 0.00416; F 0.00406; A -0.00201; H -0.0066; C -0.00556; M -0.00891; D -0.0781; W -0.0135; K 0.00655
D61: F -0.794; W -0.127; Y -0.0853; S -0.013; R -0.037; C -0.0189; G 0.00587; E -0.0493; K 0.00675; H -0.208; L 0.00218; V -0.137; T 0.00691; N -0.0108; P -0.00103; A -0.0921; Q -0.0778; M -0.00523; I -0.0219
E64: C -0.0897; R -0.103; S -0.158; A -0.0113; N -0.0585; Q 0.00334; V -0.0293; T 0.00694; P -0.284; W -0.219; Y -0.98; H -0.0871; L -0.0405; D -0.0139; F -1.97; I -0.193; G -0.0592; K -0.115
G70: S -0.0056; V 0.0055; D -0.369; L -0.0189; Q -0.528; R 0.00416; E -0.0876; F -0.115; C 0.00567; P -0.126; T -0.693; M -0.00743; A -0.0222; I -0.00774
S74: K -0.0253; L -0.0187; R 0.00425; V -0.0223; Q 0.00637; I -0.0694; E 0.00141; G -0.00226; F -0.0182; H 0.00229; Y 0.00544; N -0.0112; C -0.0037; P 0.00278; D -0.132; W -0.0127; T -0.0089; M 0.00605
V65: M -0.139; D -0.226; F -0.0274; H -0.0853; I -0.000598; W -0.114; G -0.206; S -0.0751; P -0.196; N -0.208; L -0.0109; E -0.196; K 0.00609; R -0.0229; Q -0.0644; C -0.00739; A -0.138; T -0.00404; Y -0.0274
L73: T -0.136; Q -0.236; Y -2.08; E -0.46; V -0.108; N -0.718; D -1.01; W -0.824; S -0.594; I -0.0679; A -0.307; P -1.57; K -0.453; H -0.344; G -0.786; F -0.261; C -0.0699; M -0.0108; R -0.593
A67: D 0.00532; Y 0.00691; Q -0.481; T 0.00198; P -0.143; V -0.000602; R 0.00599; N -0.0206; L -0.0838; K -0.0225; C 0.00689; I -0.0242; F -0.0807; G -0.0739; M -0.118; H -0.0348; W -0.0846; S 0.00133; E -0.0141
D77: N -0.122; Q -0.0294; S -0.0758; V -0.0835; H -0.228; A -0.0463; M -0.0782; L -0.131; W -0.0696; G -0.0368; P -0.464; Y -0.0402; F -0.0355; I -0.0954; E -0.0615; K -0.0637; R -0.122; C -0.0754; T -0.0415
Y76: R -1.37; T -1.06; W -0.136; F -0.0268; S -1.16; Q -1.53; I -1.28; H -0.27; P -1.8; D -1.25; C -1.48; K -1.41; L -1.17; A -1.05; G -1.14; N -1.1; E -1.5; V -1.41; M -1.2
